{
  "source": "patent US20170305994A1",
  "key": {"[1]": {"biological_target": "T1, human DR3 (full length, on cells) (human) (UniProt Q93038)", "T1 sequence": "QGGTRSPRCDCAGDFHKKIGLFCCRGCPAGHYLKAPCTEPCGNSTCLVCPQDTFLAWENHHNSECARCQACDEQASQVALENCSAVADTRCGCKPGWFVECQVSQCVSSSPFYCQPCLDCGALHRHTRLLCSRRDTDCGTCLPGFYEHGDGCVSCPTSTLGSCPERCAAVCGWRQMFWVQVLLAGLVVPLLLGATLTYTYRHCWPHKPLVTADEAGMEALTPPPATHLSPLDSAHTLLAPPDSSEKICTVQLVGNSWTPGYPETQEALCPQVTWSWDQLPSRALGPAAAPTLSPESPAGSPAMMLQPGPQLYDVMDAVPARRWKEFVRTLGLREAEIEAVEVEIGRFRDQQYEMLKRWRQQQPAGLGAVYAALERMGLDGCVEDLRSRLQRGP", "test": "cell-based or functional assay"}, "[2]": {"biological_target": "human DR3 with the death domain deleted (ΔM339-P417 of SEQ ID NO:1), expressed on CHOK1SV cells (human) (UniProt Q93038)", "test": "flow cytometry competition: Fab vs TL1A on hDR3-expressing CHO cells (isotype control; IC50 cell: No inhib)"}, "[3]": {"biological_target": "T1, human DR3 (full length, on cells) (human)", "test": "flow cytometry on CD3/CD28-stimulated human CD4+ T cells (isotype control)"}, "[4]": {"biological_target": "TL1A (R&D Systems) (UniProt O95150)", "sequence (O95150 72-251 limits assumed)": "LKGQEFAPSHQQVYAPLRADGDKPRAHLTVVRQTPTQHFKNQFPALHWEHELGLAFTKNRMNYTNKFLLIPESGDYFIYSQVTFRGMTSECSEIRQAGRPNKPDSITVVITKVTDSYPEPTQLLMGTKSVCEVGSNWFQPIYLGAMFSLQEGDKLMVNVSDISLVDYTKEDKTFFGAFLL", "test": "cell-based or functional assay"}, "[5]": {"biological_target": "TL1A (R&D Systems) (UniProt O95150)", "test": "cell-based or functional assay", "remark": "listed apart in the source"}},
  "note": "Values joined by “and” are separate entries in the source; they are usually repeats but may differ in a detail not shown here. Equal entries are not always repeated. Where two headings read alike, the source gives them in different places.",
  "data": [
    {"substance": "0158 (Hz-aTNP isotype control Fab)", "values": [
      {"measurement": "max % inhibition of TNFalpha, average (n 8)", "setting": "[1]", "value": -1.8, "unit": "%"},
      {"measurement": "max % inhibition of TNFalpha, donor 1", "setting": "[1]", "value": 1.24, "unit": "%"},
      {"measurement": "max % inhibition of TNFalpha, donor 2", "setting": "[1]", "value": 0.75, "unit": "%"},
      {"measurement": "max percentage inhibition", "setting": "[2]", "value": 10, "unit": "%"}
    ]},
    {"substance": "IgG1 isotype (antibody)", "values": [
      {"measurement": "Median Fluorescent Intensity", "setting": "[3]", "value": 222},
      {"measurement": "Staining index (MFI Ab/MFI Isotype)", "setting": "[3]", "value": 1}
    ]},
    {"substance": "MAB7441 (R&D Systems), TL1A specific antibody", "values": [
      {"measurement": "fold response, DR3 reporter, TL1A + 2.5 microg/ml MAb7441", "setting": "[4]", "value": 3.7, "unit": "fold"},
      {"measurement": "fold response, DR3 reporter, TL1A + 2.5 microg/ml MAb7441", "setting": "[5]", "value": "2.3 fold and 2 fold and 1.8 fold"}
    ]}
  ]
}
